The values below come from the supplement of paper PMC5998384.

Data set [1] concerns HeLa Kyoto. Kind of data set: thermal stability score vs G1/S (z-score of summed log2 fold changes over temperatures); higher = more thermally stable than in G1/S.
Data set [2] has as its system HeLa Kyoto. Kind of data set: melting temperature (median over replicates), in situ; higher = more thermally stable.
The subject of data set [3] is HeLa Kyoto. The experiment in a line: solubility change mitosis vs G1/S (difference of NP-40 vs SDS log2 ratios) (log2 ratio difference); higher = more soluble in mitosis.
The subject of data set [4] is HeLa Kyoto. Kind of data set: solubility in G1/S (NP-40 vs SDS abundance) (log2 ratio); higher = more soluble. The note with it: cell cycle stage: G1/S.
Setting [5] is: cell cycle stage: early G1 (4.5 h after nocodazole release).
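Wherever melting temperature (median over replicates), in situ is given: HeLa Kyoto cells synchronized by double thymidine or nocodazole block, proteins quantified by TMT10plex mass spectrometry, three independent biological replicates.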
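Wherever solubility change mitosis vs G1/S (difference of NP-40 vs SDS log2 ratios) is given: synchronized HeLa Kyoto cells (double thymidine block for G1/S, nocodazole release for mitosis), protein amounts in NP-40 versus SDS lysates quantified by mass spectrometry, three biological replicates.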
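Wherever solubility in G1/S (NP-40 vs SDS abundance) is given: HeLa Kyoto cells arrested at G1/S by double thymidine block, proteins quantified by TMT10plex mass spectrometry in mild NP-40 versus SDS extracts, three biological replicates.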
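Wherever thermal stability score vs G1/S (z-score of summed log2 fold changes over temperatures) is given: synchronized HeLa Kyoto cells, proteins quantified by TMT10plex mass spectrometry, three biological replicates, mitosis taken 0.5 h after nocodazole release, G1/S directly after double thymidine block.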

As to “MASGAGGVGGGGGGKIRTRRCHQGPIKPYQQGRQQHQGILSRVTESVKNIVPGWLQRYFNKNEDVCSCSTDTSEVPRWPENKEDHLVYADEESSNITDGRITPEPAVSNTEEPSTTSTASNYPDVLTRPSLHRSHLNFSMLESPALHCQPSTSSAFPIGSSGFSLVKEIKDSTSQHDDDNISTTSGFSSRASDKDITVSKNTSLPPLWSPEAERSHSLSQHTATSSKKPAFNLSAFGTLSPSLGNSSILKTSQLGDSPFYPGKTTYGGAAAAVRQSKLRNTPYQAPVRRQMKAKQLSAQSYGVTSSTARRILQSLEKMSSPLADAKRIPSIVSSPLNSPLDRSGIDITDFQAKREKVDSQYPPVQRLMTPKPVSIATNRSVYFKPSLTPSGEFRKTNQRIDNKCSTGYEKNMTPGQNREQRESGFSYPNFSLPAANGLSSGVGGGGGKMRRERTRFVASKPLEEEEMEVPVLPKISLPITSSSLPTFNFSSPEITTSSPSPINSSQALTNKVQMTSPSSTGSPMFKFSSPIVKSTEANVLPPSSIGFTFSVPVAKTAELSGSSSTLEPIISSSAHHVTTVNSTNCKKTPPEDCEGPFRPAEILKEGSVLDILKSPGFASPKIDSVAAQPTATSPVVYTRPAISSFSSSGIGFGESLKAGSSWQCDTCLLQNKVTDNKCIACQAAKLSPRDTAKQTGIETPNKSGKTTLSASGTGFGDKFKPVIGTWDCDTCLVQNKPEAIKCVACETPKPGTCVKRALTLTVVSESAETMTASSSSCTVTTGTLGFGDKFKRPIGSWECSVCCVSNNAEDNKCVSCMSEKPGSSVPASSSSTVPVSLPSGGSLGLEKFKKPEGSWDCELCLVQNKADSTKCLACESAKPGTKSGFKGFDTSSSSSNSAASSSFKFGVSSSSSGPSQTLTSTGNFKFGDQGGFKIGVSSDSGSINPMSEGFKFSKPIGDFKFGVSSESKPEEVKKDSKNDNFKFGLSSGLSNPVSLTPFQFGVSNLGQEEKKEELPKSSSAGFSFGTGVINSTPAPANTIVTSENKSSFNLGTIETKSASVAPFTCKTSEAKKEEMPATKGGFSFGNVEPASLPSASVFVLGRTEEKQQEPVTSTSLVFGKKADNEEPKCQPVFSFGNSEQTKDENSSKSTFSFSMTKPSEKESEQPAKATFAFGAQTSTTADQGAAKPVFSFLNNSSSSSSTPATSAGGGIFGSSTSSSNPPVATFVFGQSSNPVSSSAFGNTAESSTSQSLLFSQDSKLATTSSTGTAVTPFVFGPGASSNNTTTSGFGFGATTTSSSAGSSFVFGTGPSAPSASPAFGANQTPTFGQSQGASQPNPPGFGSISSSTALFPTGSQPAPPTFGTVSSSSQPPVFGQQPSQSAFGSGTTPNSSSAFQFGSSTTNFNFTNNSPSGVFTFGANSSTPAASAQPSGSGGFPFNQSPAAFTVGSNGKNVFSSSGTSFSGRKIKTAVRRRK [NUP153]”, the results for the thermal stability score in the data set with HeLa Kyoto [1] (setting [5]) and with HeLa Kyoto [1] (cell cycle stage: mitosis) were -5.41 and -3.58, respectively. For the same sequence, the melting temperature came out at 52.8 °C with HeLa Kyoto [2] (cell cycle stage: G1/S) and 52.6 °C with HeLa Kyoto [2] (cell cycle stage: mitosis). Also, the “solubility change mitosis (log2)” value in the data set on HeLa Kyoto [3] was 0.507. In addition, in the data set on HeLa Kyoto [4], the “solubility in G1/S (log2)” value was -0.682.

For the sequence “MASGGSGGVSVPALWSEVNRYGQNGDFTRALKTVNKILQINKDDVTALHCKVVCLIQNGSFKEALNVINTHTKVLANNSLSFEKAYCEYRLNRIENALKTIESANQQTDKLKELYGQVLYRLERYDECLAVYRDLVRNSQDDYDEERKTNLSAVVAAQSNWEKVVPENLGLQEGTHELCYNTACALIGQGQLNQAMKILQKAEDLCRRSLSEDTDGTEEDPQAELAIIHGQMAYILQLQGRTEEALQLYNQIIKLKPTDVGLLAVIANNIITINKDQNVFDSKKKVKLTNAEGVEFKLSKKQLQAIEFNKALLAMYTNQAEQCRKISASLQSQSPEHLLPVLIQAAQLCREKQHTKAIELLQEFSDQHPENAAEIKLTMAQLKISQGNISKACLILRSIEELKHKPGMVSALVTMYSHEEDIDSAIEVFTQAIQWYQNHQPKSPAHLSLIREAANFKLKYGRKKEAISDLQQLWKQNPKDIHTLAQLISAYSLVDPEKAKALSKHLPSSDSMSLKVDVEALENSAGATYIRKKGGKVTGDSQPKEQGQGDLKKKKKKKKGKLPKNYDPKVTPDPERWLPMRERSYYRGRKKGKKKDQIGKGTQGATAGASSELDASKTVSSPPTSPRPGSAATVSASTSNIIPPRHQKPAGAPATKKKQQQKKKKGGKGGW [SRP72]”, the thermal stability score in the data set on HeLa Kyoto [1] (setting [5]) was -0.0233; in the data set with HeLa Kyoto [1] (cell cycle stage: mitosis), 0.35. In addition, the figures for the melting temperature in the data set on HeLa Kyoto [2] (cell cycle stage: G1/S) and with HeLa Kyoto [2] (cell cycle stage: mitosis) were 50.5 °C and 49.7 °C, respectively. Besides, in the data set with HeLa Kyoto [3], the “solubility change mitosis (log2)” value is 0.328. Further, the “solubility in G1/S (log2)” value in the data set with HeLa Kyoto [4] was -0.278.

Consider “MASGRDERPPWRLGRLLLLMCLLLLGSSARAAHIKKAEATTTTTSAGAEAAEGQFDRYYHEEELESALREAAAAGLPGLARLFSIGRSVEGRPLWVLRLTAGLGSLIPEGDAGPDAAGPDAAGPLLPGRPQVKLVGNMHGDETVSRQVLIYLARELAAGYRRGDPRLVRLLNTTDVYLLPSLNPDGFERAREGDCGFGDGGPSGASGRDNSRGRDLNRSFPDQFSTGEPPALDEVPEVRALIEWIRRNKFVLSGNLHGGSVVASYPFDDSPEHKATGIYSKTSDDEVFKYLAKAYASNHPIMKTGEPHCPGDEDETFKDGITNGAHWYDVEGGMQDYNYVWANCFEITLELSCCKYPPASQLRQEWENNRESLITLIEKVHIGVKGFVKDSITGSGLENATISVAGINHNITTGRFGDFYRLLVPGTYNLTVVLTGYMPLTVTNVVVKEGPATEVDFSLRPTVTSVIPDTTEAVSTASTVAIPNILSGTSSSYQPIQPKDFHHHHFPDMEIFLRRFANEYPNITRLYSLGKSVESRELYVMEISDNPGVHEPGEPEFKYIGNMHGNEVVGRELLLNLIEYLCKNFGTDPEVTDLVHNTRIHLMPSMNPDGYEKSQEGDSISVIGRNNSNNFDLNRNFPDQFVQITDPTQPETIAVMSWMKSYPFVLSANLHGGSLVVNYPFDDDEQGLATYSKSPDDAVFQQIALSYSKENSQMFQGRPCKNMYPNEYFPHGITNGASWYNVPGGMQDWNYLQTNCFEVTIELGCVKYPLEKELPNFWEQNRRSLIQFMKQVHQGVRGFVLDATDGRGILNATISVAEINHPVTTYKTGDYWRLLVPGTYKITASARGYNPVTKNVTVKSEGAIQVNFTLVRSSTDSNNESKKGKGASSSTNDASDPTTKEFETLIKDLSAENGLESLMLRSSSNLALALYRYHSYKDLSEFLRGLVMNYPHITNLTNLGQSTEYRHIWSLEISNKPNVSEPEEPKIRFVAGIHGNAPVGTELLLALAEFLCLNYKKNPAVTQLVDRTRIVIVPSLNPDGRERAQEKDCTSKIGQTNARGKDLDTDFTNNASQPETKAIIENLIQKQDFSLSVALDGGSMLVTYPYDKPVQTVENKETLKHLASLYANNHPSMHMGQPSCPNKSDENIPGGVMRGAEWHSHLGSMKDYSVTYGHCPEITVYTSCCYFPSAARLPSLWADNKRSLLSMLVEVHKGVHGFVKDKTGKPISKAVIVLNEGIKVQTKEGGYFHVLLAPGVHNIIAIADGYQQQHSQVFVHHDAASSVVIVFDTDNRIFGLPRELVVTVSGATMSALILTACIIWCICSIKSNRHKDGFHRLRQHHDEYEDEIRMMSTGSKKSLLSHEFQDETDTEEETLYSSKH [CPD]”, for which the thermal stability score in the data set with HeLa Kyoto [1] (setting [5]) is -2.91; in the data set with HeLa Kyoto [1] (cell cycle stage: mitosis), -3.88. Moreover, the melting temperature in the data set with HeLa Kyoto [2] (cell cycle stage: G1/S) amounted to 55.5 °C; in the data set on HeLa Kyoto [2] (cell cycle stage: mitosis), 53.8 °C. In addition, in the data set with HeLa Kyoto [3], the “solubility change mitosis (log2)” value was -0.0862. In addition, the “solubility in G1/S (log2)” value in the data set on HeLa Kyoto [4] is 0.211.
